Reference: patent US10913773B2, “Bicyclic peptidyl inhibitor of tumor necrosis factor-alpha” (Ohio State Innovation Foundation, priority 2016, dated 2021)
Positions of bridges follow the written chain, without caps; N, C: chain ends. Non-standard residues stand in square brackets, D forms with d. Primed or numbered codes have the meaning given here. No end group written: not given here. *: point of attachment. FITC = O=C1OC2(c3ccc(O)cc3Oc3cc(O)ccc32)c2ccc(NC(=S)*)cc21; trimesoyl″ = benzene-1,3,5-tricarbonyl scaffold; FITC′ = fluorescein isothiocyanate, on Lys NZ; Phe(3,4-F2) = N[C@@H](Cc1ccc(F)c(F)c1)C(=O)O; Phe(4-Cl) = N[C@@H](Cc1ccc(Cl)cc1)C(=O)O; Phe(4-F) = N[C@@H](Cc1ccc(F)cc1)C(=O)O; 2Nal = N[C@@H](Cc1ccc2ccccc2c1)C(=O)O; Phg = N[C@H](C(=O)O)c1ccccc1; Nle = CCCC[C@H](N)C(=O)O; Orn = NCCC[C@H](N)C(=O)O; Abu = CC[C@H](N)C(=O)O; Dap = NC[C@H](N)C(=O)O

target: T1, Recombinant TNFα containing an N-terminal 13-aa ybbR tag (human, UniProt P01375 77-233, biotin at the ybbR tag in the ELISA assays); assay: FA
T1 construct: Expressed in E. coli; Same construct used unlabelled (FA) and biotinylated on NeutrAvidin (ELISA); also called tumor necrosis factor-alpha; human TNFα; not shown: N-terminal 13-aa ybbR tag
T1 sequence (P01375 77-233): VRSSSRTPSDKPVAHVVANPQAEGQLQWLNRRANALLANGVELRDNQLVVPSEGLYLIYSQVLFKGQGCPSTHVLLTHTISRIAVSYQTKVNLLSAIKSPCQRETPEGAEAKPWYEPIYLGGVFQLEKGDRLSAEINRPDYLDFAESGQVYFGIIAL
Experimental: (§1) The FA values were measured on a Molecular Devices Spectramax M5 spectrofluorimeter, with excitation and emission wavelengths at 485 and 525 nm, respectively. Equilibrium dissociation constants (KD) were determined by plotting the FA values as a function of TNFα concentration and fitting the data to the following equation $$Y = \frac{\left(Amin + \left(Amax \times \frac{Q_b}{Q_f} - Amin\right)\left(\frac{(L+x+K_d) - \sqrt{((L+x+K_d)^2 - 4Lx)}}{2L}\right)\right)}{\left(1 + \left(\frac{Q_b}{Q_f} - 1\right)\left(\frac{(L+x+K_d) - \sqrt{((L+x+K_d)^2 - 4Lx)}}{2L}\right)\right)}$$
(§2) where Y is the measured anisotropy at a given TNFα concentration x; L is the bicyclic peptide concentration; Qb/Qf is the correction fact for dye-protein interaction; Amax is the maximum anisotropy when all the peptides are bound to TNFα, while $Amin$ is the minimum anisotropy. […] The FA values were plotted against the competitor peptide concentration to determine the IC$50$ values.

| Binder | fold decrease in TNFα binding against C1 (Phg at position-1) [fold] | fold reduction in affinity against C1-35 [fold] |
| --- | --- | --- |
| RY[dA]KY[dF]G[dK]H[Dap]K(FITC′)-NH2 (bridge (positions not given here) via trimesoyl″; not fully specified (N-terminus, bridges)) [C1-10] | ≥ 5 |  |
| [Nle]Y[dS]KW[dH]G[dK]H[Dap]RK(FITC)-NH2 (linker N-4-10 via trimesoyl″, C1-35 core with R11 as printed) [C1-53] |  | > 40 |

target: T1, Recombinant TNFα containing an …; assay: FA, FITC-peptide + TNFα titration
Experimental: as §1, §2

| Binder | Kd [nM] |
| --- | --- |
| [Phg]Y[dA]KY[dF]G[dK]H[Dap]NNNK(FITC′)-NH2 (bridge (positions not given here) via trimesoyl″; not fully specified (N-terminus, bridges); also: feature: K4 labeled with FITC, also called C1-NNNK(FITC); NNNK-tagged anticachexin C1) [Asn-Asn-Asn-Lys(FITC)-labeled anticachexin C1] | 800 |
| VY[dA]KY[dF]G[dK]H[Dap]K(FITC)-NH2 (linker (positions not given here) via trimesoyl″; not fully specified (bridges)) [C1-4] | 1700 |
| AY[dA]KY[dF]G[dK]H[Dap]K(FITC′)-NH2 (linker (positions not given here) via trimesoyl″; not fully specified (N-terminus, bridges)) [C1-2] | 1800 |
| VY[dS]KY[dF]G[dK]H[Dap]K(FITC′)-NH2 (linker (positions not given here) via trimesoyl″; not fully specified (N-terminus, bridges)) [C1-13] | 2400 |
| VY[dT]KY[dF]G[dK]H[Dap]K(FITC′)-NH2 (linker (positions not given here) via trimesoyl″; not fully specified (N-terminus, bridges)) [C1-14] | 2900 |
| VY[dN]KY[dF]G[dK]H[Dap]K(FITC′)-NH2 (linker (positions not given here) via trimesoyl″; not fully specified (N-terminus, bridges)) [C1-15] | 3200 |
| LY[dN]KY[dF]G[dK]H[Dap]K(FITC′)-NH2 (linker (positions not given here) via trimesoyl″; not fully specified (N-terminus, bridges)) [C1-16] | 2700 |
| FY[dN]KY[dF]G[dK]H[Dap]K(FITC′)-NH2 (linker (positions not given here) via trimesoyl″; not fully specified (N-terminus, bridges)) [C1-17] | 2200 |
| [Phg]Y[dA]KY[dF]G[dK]H[Dap]K(FITC′)-NH2 (linker (positions not given here) via trimesoyl″; not fully specified (N-terminus, bridges)) [Anticachexin C1, Lys(FITC)-labelled (Table 2)] | 1400 |
| [Abu]Y[dA]KY[dF]G[dK]H[Dap]K(FITC)-NH2 (linker N-4-10 via trimesoyl″) [C1-3] | 2000 |
| [Nle]Y[dN]KY[dF]G[dK]H[Dap]K(FITC′)-NH2 (linker (positions not given here) via trimesoyl″; not fully specified (N-terminus, bridges)) [C1-12] | 1400 |
| [Nle]YSKY[dF]G[dK]H[Dap]K(FITC′)-NH2 (linker (positions not given here) via trimesoyl″; not fully specified (N-terminus, bridges), L-Ser at position 3) [C1-19] | 6800 |
| [Nle]Y[dS][Orn]Y[dF]G[dK]H[Dap]K(FITC′)-NH2 (linker (positions not given here) via trimesoyl″; not fully specified (N-terminus, bridges)) [C1-20] | 3500 |
| [Nle]Y[dS][Dap]Y[dF]G[dK]H[Dap]K(FITC′)-NH2 (linker (positions not given here) via trimesoyl″; not fully specified (N-terminus, bridges)) [C1-21] | 5900 |

target: T1, Recombinant TNFα containing an …; assay: FA, FITC-peptide + TNFα titration; remark: another data set of the same source
Experimental: as §1, §2

| Binder | Kd [nM] |
| --- | --- |
| [Nle]F[dS]KY[dF]G[dK]H[Dap]K(FITC′)-NH2 (linker (positions not given here) via trimesoyl″; not fully specified (N-terminus, bridges)) [C1-22] | 1700 |
| [Nle]H[dS]KY[dF]G[dK]H[Dap]K(FITC)-NH2 (linker N-4-10 via trimesoyl″) [C1-26] | 2100 |
| [Nle]L[dS]KY[dF]G[dK]H[Dap]K(FITC)-NH2 (linker N-4-10 via trimesoyl″) [C1-27] | 3700 |
| [Nle]Q[dS]KY[dF]G[dK]H[Dap]K(FITC)-NH2 (linker N-4-10 via trimesoyl″) [C1-28] | 4300 |
| [Nle]Y[dS]KY[dY]G[dK]H[Dap]K(FITC)-NH2 (linker N-4-10 via trimesoyl″) [C1-29] | 2000 |
| [Nle]Y[dS]KY[dL]G[dK]H[Dap]K(FITC)-NH2 (linker N-4-10 via trimesoyl″) [C1-31] | 2500 |
| [Nle]Y[dS]KY[dQ]G[dK]H[Dap]K(FITC)-NH2 (linker N-4-10 via trimesoyl″) [C1-32] | 1300 |
| [Nle]W[dS]KY[dH]G[dK]H[Dap]K(FITC)-NH2 (linker N-4-10 via trimesoyl″) [C1-41] | 430 |
| [Nle][Phe(4-F)][dS]KY[dF]G[dK]H[Dap]K(FITC′)-NH2 (bridge (positions not given here) via trimesoyl″; not fully specified (N-terminus, bridges)) [C1-23] | 1200 |
| [Nle][Phe(4-F)][dS]KY[dQ]G[dK]H[Dap]K(FITC)-NH2 (linker N-4-10 via trimesoyl″) [C1-37] | 1300 |
| [Nle][Phe(4-F)][dS]KY[dH]G[dK]H[Dap]K(FITC)-NH2 (linker (positions not given here) via trimesoyl″; not fully specified (bridges)) [C1-39] | 1700 |
| [Nle][Phe(4-Cl)][dS]KY[dH]G[dK]H[Dap]K(FITC)-NH2 (linker N-4-10 via trimesoyl″) [C1-40] | 4100 |
| [Nle][Phe(4-Cl)][dS]KY[dF]G[dK]H[Dap]K(FITC)-NH2 (linker N-4-10 via trimesoyl″) [C1-24] | 4800 |
| [Nle][Phe(3,4-F2)][dS]KY[dF]G[dK]H[Dap]K(FITC)-NH2 (linker N-4-10 via trimesoyl″) [C1-25] | 5400 |
| [Nle]Y[dS]K[Phe(4-F)][dH]G[dK]H[Dap]K(FITC)-NH2 (linker N-4-10 via trimesoyl″) [C1-33] | 760 |
| [Nle]Y[dS]K[Phe(4-Cl)][dH]G[dK]H[Dap]K(FITC)-NH2 (linker N-4-10 via trimesoyl″) [C1-34] | 1600 |
| [Nle]Y[dS]K[2Nal][dH]G[dK]H[Dap]K(FITC)-NH2 (linker N-4-10 via trimesoyl″) [C1-36] | 1300 |
